The record followed here is the Human Domainome abundance scans (Beltran et al. 2025).

± gives the uncertainty stated by the source.

The labels stand for the following.
B1: Zinc finger MYM-type protein 2, residues 463 to 506; numbered along this chain, Q9UBW7 (parent)
chain: IMNCCEQCGEYLPSKGAGNNVLVIDGQQKRFCCQSCVSEYKQVG

Variants of B1 are the subject of the data set. Description: abundance fitness (aPCA) (normalised: wild type 0, dead -1); higher = more abundant; growth selection in yeast, the domain comes from the species named. Particulars: Homo sapiens.
Turning to IMNCCEQCGEYLPSKGAGNNVLVIDGQQKRFCCQSCVSEQKQVG [Y40Q], the abundance fitness came out at 0.067 ± 0.12. With IMNCCEQCGEYLPSKGAGNNVLVIDGQQKRFCCQSCVSEKKQVG [Y40K] the figure was -0.057 ± 0.18; with IMNCCEQCGEYLPSKGAGNNVLVIDGQQKRFCCQSCVSEVKQVG [Y40V], -0.108 ± 0.1. For the variant IMNCCEQCGEYLPSKGAGNNVLVIDGQQKRFCCQSCVSELKQVG [Y40L], the abundance fitness is -0.163 ± 0.089. For the variant IMNCCEQCGEYLPSKGAGNNVLVIDGQQKRFCCQSCVSERKQVG [Y40R], the abundance fitness was -0.037 ± 0.07. With IMNCCEQCGEYLPSKGAGNNVLVIDGQQKRFCCQSCVSESKQVG [Y40S] the figure was 0.121 ± 0.1; with IMNCCEQCGEYLPSKGAGNNVLVIDGQQKRFCCQSCVSEEKQVG [Y40E], 0.067 ± 0.096. To IMNCCEQCGEYLPSKGAGNNVLVIDGQQKRFCCQSCVSENKQVG [Y40N] belongs -0.309 ± 0.39. Consider IMNCCEQCGEYLPSKGAGNNVLVIDGQQKRFCCQSCVSEPKQVG [Y40P], for which the abundance fitness was 0.192 ± 0.16. Consider IMNCCEQCGEYLPSKGAGNNVLVIDGQQKRFCCQSCVSEWKQVG [Y40W], for which the abundance fitness was determined as 0.002 ± 0.11. With IMNCCEQCGEYLPSKGAGNNVLVIDGQQKRFCCQSCVSEYKGVG [Q42G] the figure was 0.076 ± 0.077; with IMNCCEQCGEYLPSKGAGNNVLVIDGQQKRFCCQSCVSEYKKVG [Q42K], -0.045 ± 0.26; with IMNCCEQCGEYLPSKGAGNNVLVIDGQQKRFCCQSCVSEYKEVG [Q42E], -0.102 ± 0.11. With IMNCCEQCGEYLPSKGAGNNVLVIDGQQKRFCCQSCVSEYKAVG [Q42A] the figure was 0.109 ± 0.078; with IMNCCEQCGEYLPSKGAGNNVLVIDGQQKRFCCQSCVSEYKHVG [Q42H], -0.08 ± 0.12. To IMNCCEQCGEYLPSKGAGNNVLVIDGQQKRFCCQSCVSPYKQVG [E39P] belongs -0.285 ± 0.13.

As to IMNCCEQCGEYLPSKGAGNNVLVIDGQQKRFCCQSCVSWYKQVG [E39W], the abundance fitness is -0.478 ± 0.098. Consider IMNCCEQCGEYLPSKGAGNNVLVIDGQQKRFCCQSCVSCYKQVG [E39C], for which the abundance fitness was found to be 0.204 ± 0.11. With IMNCCEQCGEYLPSKGAGNNVLVIDGQQKRFCCQSCVSKYKQVG [E39K] the figure was 0.33 ± 0.12; with IMNCCEQCGEYLPSKGAGNNVLVIDGQQKRFCCQSCVSTYKQVG [E39T], 0.093 ± 0.13. To IMNCCEQCGEYLPSKGAGNNVLVIDGQQKRFCCQSCVSMYKQVG [E39M] belongs 0.087 ± 0.13; to IMNCCEQCGEYLPSKGAGNNVLVIDGQQKRFCCQSCVSQYKQVG [E39Q], -0.144 ± 0.2. With IMNCCEQCGEYLPSKGAGNNVLVIDGQQKRFCCQSCVSAYKQVG [E39A] the figure was 0.09 ± 0.076; with IMNCCEQCGEYLPSKGAGNNVLVIDGQQKRFCCQSCVSVYKQVG [E39V], 0.086 ± 0.087; with IMNCCEQCGEYLPSKGAGNNVLVIDGQQKRFCCQSCVSSYKQVG [E39S], 0.054 ± 0.1.

As to IMNCCEQCGEYLPSKGAGNNVLVIDGQQKRFCCQSCVSLYKQVG [E39L], the abundance fitness is -0.265 ± 0.14. Take IMNCCEQCGEYLPSKGAGNNVLVIDGQQKRFCCQSCVSYYKQVG [E39Y]: the abundance fitness is 0.032 ± 0.15. With IMNCCEQCGEYLPSKGAGNNVLVIDGQQKRFCCQSCVSGYKQVG [E39G] the figure was 0.095 ± 0.083.

IMNCCEQCGEYLPSKGAGNNVLVIDGQQKRFCCQSCCSEYKQVG [V37C]: the abundance fitness turned out to be 0.018 ± 0.15. To IMNCCEQCGEYLPSKGAGNNVLVIDGQQKRFCCQSCFSEYKQVG [V37F] belongs -0.259 ± 0.16. To IMNCCEQCGEYLPSKGAGNNVLVIDGQQKRFCCQSCMSEYKQVG [V37M] belongs 0.181 ± 0.14.

As for IMNCCEQCGEYLPSKGAGNNVLVIDGQQKRFCCQSCESEYKQVG [V37E], the abundance fitness came out at 0.109 ± 0.1. Take IMNCCEQCGEYLPSKGAGNNVLVIDGQQKRFCCQSCGSEYKQVG [V37G]: the abundance fitness was -0.226 ± 0.075.

Regarding IMNCCEQCGEYLPSKGAGNNVLVIDGQQKRFCCQSCTSEYKQVG [V37T], the abundance fitness was found to be 0.049 ± 0.13. To IMNCCEQCGEYLPSKGAGNNVLVIDGQQKRFCCQSCSSEYKQVG [V37S] belongs -0.161 ± 0.099; to IMNCCEQCGEYLPSKGAGNNVLVIDGQQKRFCCQSCPSEYKQVG [V37P], -0.135 ± 0.13; to IMNCCEQCGEYLPSKGAGNNVLVIDGQQKRFCCQSCWSEYKQVG [V37W], -0.093 ± 0.086. To IMNCCEQCGEYLPSKGAGNNVLVIDGQQKRFCCQSCKSEYKQVG [V37K] belongs -0.101 ± 0.085; to IMNCCEQCGEYLPSKGAGNNVLVIDGQQKRFCCQSCASEYKQVG [V37A], -0.063 ± 0.083; to IMNCCEQCGEYLPSKGAGNNVLVIDGQQKRFCCQSCDSEYKQVG [V37D], -0.227 ± 0.1. As for IMNCCEQCGEYLPSKGAGNNVLVIDGQQKRFCCQSCQSEYKQVG [V37Q], the abundance fitness is -0.024 ± 0.14. To IMNCCEQCGEYLPSKGAGNNVLVIDGQQKRFCCQSCRSEYKQVG [V37R] belongs -0.112 ± 0.072. With IMNCCEQCGEYLPSKGAGNNVLVIDGQQKRFCCQYCVSEYKQVG [S35Y] the figure was -0.08 ± 0.22; with IMNCCEQCGEYLPSKGAGNNVLVIDGQQKRFCCQWCVSEYKQVG [S35W], -0.114 ± 0.088; with IMNCCEQCGEYLPSKGAGNNVLVIDGQQKRFCCQCCVSEYKQVG [S35C], -0.113 ± 0.088.

In the case of IMNCCEQCGEYLPSKGAGNNVLVIDGQQKRFCCQACVSEYKQVG [S35A], the abundance fitness is -0.072 ± 0.074.

Take IMNCCEQCGEYLPSKGAGNNVLVIDGQQKRFCCQFCVSEYKQVG [S35F]: the abundance fitness is -0.226 ± 0.19. IMNCCEQCGEYLPSKGAGNNVLVIDGQQKRFCCQVCVSEYKQVG [S35V]: the abundance fitness was -0.092 ± 0.1. Take IMNCCEQCGEYLPSKGAGNNVLVIDGQQKRFCCQQCVSEYKQVG [S35Q]: the abundance fitness is -0.065 ± 0.095. To IMNCCEQCGEYLPSKGAGNNVLVIDGQQKRFCCQECVSEYKQVG [S35E] belongs 0.006 ± 0.1; to IMNCCEQCGEYLPSKGAGNNVLVIDGQQKRFCCQICVSEYKQVG [S35I], 0.024 ± 0.11; to IMNCCEQCGEYLPSKGAGNNVLVIDGQQKRFCCQMCVSEYKQVG [S35M], -0.087 ± 0.11. Take IMNCCEQCGEYLPSKGAGNNVLVIDGQQKRFCCQRCVSEYKQVG [S35R]: the abundance fitness was 0.085 ± 0.072. With IMNCCEQCGEYLPSKGAGNNVLVIDGQQKRFCCQKCVSEYKQVG [S35K] the figure was 0.156 ± 0.1. As for IMNCCEQCGEYLPSKGAGNNVLVIDGQQKRFCCQHCVSEYKQVG [S35H], the abundance fitness is -0.091 ± 0.2.

Consider IMNCCEQCGEYLPSKGAGNNVLVIDGQQKRFCCQLCVSEYKQVG [S35L], for which the abundance fitness is -0.136 ± 0.07. As to IMNCCEQCGEYLPSKGAGNNVLVIDGQQKRFCCQGCVSEYKQVG [S35G], the abundance fitness stood at 0.024 ± 0.077. To IMNCCEQCGEYLPSKGAGNNVLVIDGQQKRFCCQPCVSEYKQVG [S35P] belongs -0.058 ± 0.13.
